Source: patent publication US9816117B2, “Methods, reagents and cells for biosynthesizing compounds” (INVISTA North America S.á r.l., priority 2014, dated 2017)

Legend:
[1] = carboxylate reductase enzyme activity assay (adipate to adipate semialdehyde); type: biochemical; conditions: purified enzyme enhanced by sfp gene product; 2 mM adipate; room temperature, 20 min; against empty vector control (FIG. 12)
Experimental: A sequence encoding a HIS-tag was added to the genes from Segniliparus rugosus and Segniliparus rotundus that encode the carboxylate reductases of SEQ ID NOs: 4 and 6, respectively (see FIG. 9), such that N-terminal HIS tagged carboxylate reductases could be produced. Each of the modified genes was cloned into a pET Duet expression vector along with a sfp gene encoding a HIS-tagged phosphopantetheine transferase from Bacillus subtilis, both under the T7 promoter. Each expression vector was transformed into a BL21[DE3] E. coli host and the resulting recombinant E. coli strains were cultivated at 37° C. in a 250 mL shake flask culture containing 50 mL LB media and antibiotic selection pressure, with shaking at 230 rpm. Each culture was induced overnight at 37° C. using an auto-induction media.
The pellet from each induced shake flask culture was harvested via centrifugation. Each pellet was resuspended and lysed via sonication, and the cell debris was separated from the supernatant via centrifugation. […]
Enzyme activity assays (i.e., from adipate to adipate semialdehyde) were performed in triplicate in a buffer composed of a final concentration of 50 mM HEPES buffer (pH=7.5), 2 mM adipate, 10 mM MgCl2, 1 mM ATP and 1 mM NADPH. […] The consumption of NADPH was monitored by absorbance at 340 nm.

[2] = carboxylate reductase enzyme activity assay (adipate semialdehyde to hexanedial); type: biochemical; conditions: purified enzyme enhanced by sfp gene product; 2 mM adipate semialdehyde; room temperature, 20 min; against empty vector control (FIG. 15)
Experimental: The N-terminal His-tagged carboxylate reductase of SEQ ID NO 6 (see Example 2, Example 3 and FIG. 9) was assayed using adipate semialdehyde as substrate. The enzyme activity assay was performed in triplicate in a buffer composed of a final concentration of 50 mM HEPES buffer (pH=7.5), 2 mM adipate semialdehyde, 10 mM MgCl2, 1 mM ATP and 1 mM NADPH. The enzyme activity assay reaction was initiated by adding purified carboxylate reductase and phosphopantetheine transferase or the empty vector control to the assay buffer containing the adipate semialdehyde and then incubated at room temperature for 20 min. The consumption of NADPH was monitored by absorbance at 340 nm.

B1: SEQ ID NO 6: Segniliparus rotundus carboxylate reductase (Genbank Accession No. ADG98140.1) (protein, listed as Segniliparus rotundus)
chain: MTQSHTQGPQASAAHSRLARRAAELLATDPQAAATLPDPEVVRQATRPGLRLAERVDAILSGYADRPALGQRSFQTVKDPITGRSSVELLPTFDTITYRELRERATAIASDLAHHPQAPAKPGDFLASIGFISVDYVAIDIAGVFAGLTAVPLQTGATLATLTAITAETAPTLFAASIEHLPTAVDAVLATPSVRRLLVFDYRAGSDEDREAVEAAKRKIADAGSSVLVDVLDEVIARGKSAPKAPLPPATDAGDDSLSLLIYTSGSTGTPKGAMYPERNVAHFWGGVWAAAFDEDAAPPVPAINITFLPLSHVASRLSLMPTLARGGLMHFVAKSDLSTLFEDLKLARPTNLFLVPRVVEMLYQHYQSELDRRGVQDGTREAEAVKDDLRTGLLGGRILTAGFGSAPLSAELAGFIESLLQIHLVDGYGSTEAGPVWRDGYLVKPPVTDYKLIDVPELGYFSTDSPHPRGELAIKTQTILPGYYKRPETTAEVFDEDGFYLTGDVVAQIGPEQFAYVDRRKNVLKLSQGEFVTLAKLEAAYSSSPLVRQLFVYGSSERSYLLAVIVPTPDALKKFGVGEAAKAALGESLQKIARDEGLQSYEVPRDFIIETDPFTVENGLLSDARKSLRPKLKEHYGERLEAMYKELADGQANELRDIRRGVQQRPTLETVRRAAAAMLGASAAEIKPDAHFTDLGGDSLSALTFSNFLHDLFEVDVPVGVIVSAANTLGSVAEHIDAQLAGGRARPTFATVHGKGSTTIKASDLTLDKFIDEQTLEAAKHLPKPADPPRTVLLTGANGWLGRFLALEWLERLAPAGGKLITIVRGKDAAQAKARLDAAYESGDPKLAGHYQDLAATTLEVLAGDFSEPRLGLDEATWNRLADEVDFISHPGALVNHVLPYNQLFGPNVAGVAEIIKLAITTRIKPVTYLSTVAVAAGVEPSALDEDGDIRTVSAERSVDEGYANGYGNSKWGGEVLLREAHDRTGLPVRVFRSDMILAHQKYTGQVNATDQFTRLVQSLLATGLAPKSFYELDAQGNRQRAHYDGIPVDFTAESITTLGGDGLEGYRSYNVFNPHRDGVGLDEFVDWLIEAGHPITRIDDYDQWLSRFETSLRGLPESKRQASVLPLLHAFARPGPAVDGSPFRNTVFRTDVQKAKIGAEHDIPHLGKALVLKYADDIKQLGLL
- carboxylate reductase activity: acceptance of adipate as substrate (consumption of NADPH, absorbance at 340 nm) [1]: accepted adipate as substrate
- carboxylate reductase activity: acceptance of adipate semialdehyde as substrate (consumption of NADPH, absorbance at 340 nm) [2]: accepted adipate semialdehyde as substrate
